Consider 29 sequences from the Immune Epitope Database (IEDB).

For test [1], the target named is HLA-B*07:02. The experiment in a line: IEDB peptide-MHC binding, purified MHC/direct/fluorescence; filed as Kd, often an IC50 or EC50 that approximates it; ≥ and ≤ were set here for values at or beyond the usual limits of such assays.
Test [2] has as its target HLA-A*11:01. Described as above.
A further test deals with HLA-B*40:01. The test is described as above.
In test [3] the target is HLA-A*02:01. Described as above.
The target of another test is HLA-B*08:01. Described as above.
The target of the next test is HLA-B*58:01. The test is described as above.
In test [4] the target is HLA-A*26:01. Described as above.
Test [5] concerns the target HLA-B*15:01. The description is as above.
Another test has as its target HLA-A*69:01. The description is as above.
A further test concerns the target HLA-B*27:05. Described as above.
A further test concerns the target HLA-A*31:01. The description is as above.
Test [6] deals with HLA-A*01:01. The test is described as above.
The target of test [7] is HLA-A*03:01. The description is as above.
The target of another test is HLA-B*39:01. The experiment in a line: IEDB peptide-MHC binding, purified MHC/competitive/fluorescence; filed as Kd, often an IC50 or EC50 that approximates it; ≥ and ≤ were set here for values at or beyond the usual limits of such assays. The following applies: source organism: Pseudomonas aeruginosa PAO1.
The next test concerns the target HLA-B*35:01. The experiment in a line: IEDB peptide-MHC binding, purified MHC/competitive/radioactivity; filed as Kd, often an IC50 or EC50 that approximates it; ≥ and ≤ were set here for values at or beyond the usual limits of such assays.
Another test concerns the target HLA-B*51:01. The test is described as above.
The target in a further test is HLA-B*53:01. The test is described as above. The following applies: source organism: Dengue virus 1 Brazil/97-11/1997.
Test [8] concerns the target HLA-B*07:02. The description is as above.
The target of test [9] is HLA-A*11:01. The experiment in a line: IEDB peptide-MHC binding, purified MHC/competitive/fluorescence; ≥ and ≤ were set here for values at or beyond the usual limits of such assays.
A further test addresses HLA-A*29:02. The experiment in a line: IEDB peptide-MHC binding, purified MHC/competitive/radioactivity; filed as Kd, often an IC50 or EC50 that approximates it; ≥ and ≤ were set here for values at or beyond the usual limits of such assays.
The target in another test is HLA-A*30:01. Described as above.
Test [10] has as its target HLA-A*26:01. Described as above.
For test [11], the target named is HLA-A*01:01. The test is described as above.
The next test has as its target HLA-A*32:01. Described as above.
Another test addresses HLA-A*30:02. The test is described as above.
For test [12], the target named is HLA-A*26:01. The experiment in a line: IEDB peptide-MHC binding, purified MHC/competitive/fluorescence; filed as Kd, often an IC50 or EC50 that approximates it; ≥ and ≤ were set here for values at or beyond the usual limits of such assays. The following applies: source organism: Yersinia bercovieri ATCC 43970.
Test [13] concerns the target HLA-B*15:01. Described as above. Particulars: source organism: Yersinia bercovieri ATCC 43970.
For test [14], the target named is HLA-A*03:01. The test is described as above.
The target of another test is HLA-B*44:02. Description: IEDB peptide-MHC binding, purified MHC/direct/fluorescence; filed as Kd, often an IC50 or EC50 that approximates it; ≥ and ≤ were set here for values at or beyond the usual limits of such assays. The following applies: source organism: Salmonella enterica.
Test [15] has as its target HLA-B*15:01. Description: IEDB peptide-MHC binding, purified MHC/competitive/radioactivity; filed as Kd, often an IC50 or EC50 that approximates it; ≥ and ≤ were set here for values at or beyond the usual limits of such assays. Particulars: source organism: Vaccinia virus WR.
Test [16] addresses HLA-A*02:01. Description: IEDB peptide-MHC binding, purified MHC/competitive/fluorescence; ≥ and ≤ were set here for values at or beyond the usual limits of such assays. Particulars: source organism: Zaire ebolavirus.
Another test addresses HLA-A*24:02. Described as above. The following applies: source organism: Zaire ebolavirus.
[17] abbreviates: source organism: Pseudomonas aeruginosa.
Setting [18] is: source organism: Dengue virus 1 Brazil/97-11/1997.
Setting [19] is: source organism: Dengue virus 3 Martinique/1243/1999.
[20] abbreviates: source organism: Zaire ebolavirus.
Setting [21] is: source organism: Dengue virus 2 Jamaica/1409/1983.
Setting [22] is: source organism: Lymphocytic choriomeningitis virus (strain Armstrong).
Where [23] appears, read: source organism: Mammarenavirus lassaense.
Where [24] appears, read: source organism: Salmonella enterica.
The mark [25] stands for this setting: source organism: Mammarenavirus brazilense.

Turning to SEYKAAGYL, the Kd with HLA-B*07:02 [1] (setting [17]) is not below 20 µM; in the test with HLA-A*11:01 [2] (setting [17]), not below 20 µM; with HLA-B*40:01 (setting [17]), 0.0196 µM; in the test with HLA-A*02:01 [3] (setting [17]) it was not below 20 µM; with HLA-B*08:01 (setting [17]), not below 20 µM; in the test with HLA-B*58:01 (setting [17]) it was not below 20 µM. Moreover, the Kd in the test with HLA-A*26:01 [4] (setting [17]), in the test with HLA-B*15:01 [5] (setting [17]), in the test with HLA-A*69:01 (setting [17]), in the test with HLA-B*27:05 (setting [17]), in the test with HLA-A*31:01 (setting [17]) and with HLA-A*01:01 [6] (setting [17]) was not below 20 µM in each case. Further, the Kd with HLA-A*03:01 [7] (setting [17]) and with HLA-B*39:01 was not below 20 µM in each case.
Take GEDDDMLPW: the Kd with HLA-B*07:02 [1] (setting [17]) was not below 20 µM; in the test with HLA-A*11:01 [2] (setting [17]) it was not below 20 µM; in the test with HLA-B*40:01 (setting [17]), 2.59 µM; in the test with HLA-A*02:01 [3] (setting [17]), not below 20 µM; in the test with HLA-B*08:01 (setting [17]) it was not below 20 µM; with HLA-B*58:01 (setting [17]), not below 20 µM. Besides, the Kd in the test with HLA-A*26:01 [4] (setting [17]), in the test with HLA-B*15:01 [5] (setting [17]), with HLA-A*69:01 (setting [17]), with HLA-B*27:05 (setting [17]), in the test with HLA-A*31:01 (setting [17]) and in the test with HLA-A*01:01 [6] (setting [17]) was not below 20 µM each time. The same sequence had a Kd with HLA-A*03:01 [7] (setting [17]) not below 20 µM.
As to LPDTIETLML, the Kd is 0.578 µM with HLA-B*35:01 (setting [18]), 19.3 µM in the test with HLA-B*51:01 (setting [18]) and 0.297 µM in the test with HLA-B*53:01.
As to TPTWNRKELL, the Kd with HLA-B*07:02 [8] (setting [19]) was 0.0182 µM.
In the test with HLA-A*11:01 [9] (setting [20]), KACLEKVQR yielded an IC50 not below 188 µM.
With MGLDKGWPI, the Kd with HLA-B*51:01 (setting [18]) was not below 44.7 µM.
For the sequence LILCVTQVLM, in the test with HLA-B*35:01 (setting [21]), the Kd worked out at 14.2 µM.
On to FPLCLSTTSQ, for which the Kd with HLA-B*07:02 [8] (setting [18]) was 0.179 µM; with HLA-B*35:01 (setting [18]), 0.514 µM; with HLA-B*51:01 (setting [18]) it was not below 39.6 µM; with HLA-B*53:01 it was 0.0363 µM.
As for CSANNSHHY, the Kd was 0.522 µM with HLA-A*29:02 (setting [22]); not below 43.7 µM with HLA-A*30:01 (setting [22]); 8.05 µM in the test with HLA-A*26:01 [10] (setting [22]); 0.0102 µM with HLA-A*01:01 [11] (setting [22]); not below 49.8 µM in the test with HLA-A*32:01 (setting [22]); 0.0106 µM in the test with HLA-A*30:02 (setting [22]).
Turning to KDESIFINK, the IC50 with HLA-A*11:01 [9] (source organism: Vaccinia virus Copenhagen) was not below 82.6 µM.
TPRSMPGTRR: the Kd with HLA-B*07:02 [8] (setting [19]) came out at 1.14 µM.
With AAHSARPPPY, the Kd with HLA-A*29:02 (setting [23]) was 0.272 µM; in the test with HLA-A*30:01 (setting [23]) it was 0.114 µM; with HLA-A*26:01 [10] (setting [23]), 2.28 µM; with HLA-A*01:01 [11] (setting [23]), 18.8 µM; in the test with HLA-A*32:01 (setting [23]), 2.41 µM; in the test with HLA-A*30:02 (setting [23]), 4.57 µM.
Consider SPSKLASAIQ, for which the Kd with HLA-B*07:02 [8] (setting [21]) came out at 0.436 µM.
In the case of YIYDTAFKY, the figures for the Kd in the test with HLA-A*26:01 [12], with HLA-B*15:01 [13] and with HLA-A*03:01 [14] (source organism: Yersinia bercovieri ATCC 43970) were 0.265 µM, 0.173 µM and 3.83 µM, respectively.
In the case of LPVWLAYKVA, the Kd with HLA-B*35:01 (source organism: Dengue virus 2 Peru/IQT2913/1996) came out at 5.09 µM.
Take KPEGKVIDL: the Kd with HLA-B*07:02 [8] (setting [18]) stood at 0.496 µM.
As for LALGCYSQV, in the test with HLA-B*51:01 (setting [18]), the Kd came to 0.567 µM.
CIYRRFKYGLK returned a Kd with HLA-A*03:01 [14] (source organism: Influenza A virus (A/Puerto Rico/8/1934(H1N1))) of 0.0056 µM.
As to EEQTDPKTL, the Kd is not below 20 µM with HLA-B*07:02 [1] (setting [24]); not below 20 µM in the test with HLA-A*11:01 [2] (setting [24]); not below 20 µM in the test with HLA-B*44:02; 7.33 µM in the test with HLA-B*40:01 (setting [24]); not below 20 µM with HLA-A*02:01 [3] (setting [24]); not below 20 µM with HLA-B*08:01 (setting [24]). Further, the Kd with HLA-B*58:01 (setting [24]), with HLA-A*26:01 [4] (setting [24]), in the test with HLA-B*15:01 [5] (setting [24]), with HLA-A*69:01 (setting [24]), with HLA-B*27:05 (setting [24]) and with HLA-A*31:01 (setting [24]) was not below 20 µM throughout. In addition, the Kd with HLA-A*01:01 [6] (setting [24]) and with HLA-A*03:01 [7] (setting [24]) was not below 20 µM throughout.
EESASSGKL yielded an IC50 in the test with HLA-A*11:01 [9] (setting [20]) not below 214 µM.
Turning to SPSPTVEESR, the Kd with HLA-B*07:02 [8] (setting [19]) came out at 3.71 µM.
In the case of GLNISGYNY, the Kd was 0.0168 µM with HLA-A*29:02 (setting [25]); not below 39.2 µM in the test with HLA-A*30:01 (setting [25]); not below 67.9 µM with HLA-A*26:01 [10] (setting [25]); 13.4 µM with HLA-A*01:01 [11] (setting [25]); 16.5 µM with HLA-A*32:01 (setting [25]); 0.0957 µM with HLA-A*30:02 (setting [25]).
As for RVLSLIGLK, the IC50 in the test with HLA-A*11:01 [9] (source organism: West Nile virus) was 0.334 µM.
With IALDLVTEI, in the test with HLA-B*51:01 (setting [19]), the Kd came out at 0.00152 µM.
As to STAPSSPPPY, the Kd with HLA-A*29:02 (setting [22]) was 2.69 µM; with HLA-A*30:01 (setting [22]), 0.344 µM; in the test with HLA-A*26:01 [10] (setting [22]) it was 8.26 µM; with HLA-A*01:01 [11] (setting [22]) it was 0.034 µM; in the test with HLA-A*32:01 (setting [22]) it was 9.4 µM; with HLA-A*30:02 (setting [22]), 1.52 µM.
For KTIARFTYF, the Kd with HLA-B*15:01 [15] was found to be 0.000195 µM; with HLA-A*32:01 (source organism: Vaccinia virus WR), 0.0952 µM.
Regarding TPSMTMRCVG, the Kd with HLA-B*07:02 [8] (setting [19]) was determined as 0.048 µM.
In the case of MGVTGILQL, the values for the IC50 in the test with HLA-A*11:01 [9] (setting [20]), in the test with HLA-A*02:01 [16] and in the test with HLA-A*24:02 were not below 73.8 µM, 52.9 µM and not below 85.2 µM, respectively.
For the sequence FSRENSLSGV, the Kd in the test with HLA-B*51:01 (setting [18]) came out at 7.58 µM.
